Data reported in PMC9481871, “Anti-TGF-β1 aptamer enhances therapeutic effect of tyrosine kinase inhibitor, gefitinib, on non-small cell lung cancer in xenograft model”.

Tests used:
Assay in all cases: SPR; 500 nM protein; aptamer immobilized; SPR (Biacore): 145 mM NaCl, 5.4 mM KCl, 0.8 mM MgCl2, 1.8 mM CaCl2, 20 mM Tris-HCl pH 7.6, 0.05% Tween 20; temperature not given
Settings in all cases: protein: recombinant; chain copies: 2
mouse TGF-β1 (active) = mouse TGF-β1 (active) (Mus musculus, UniProt P04202 279-390)
human TGF-β2 = molecular target: T1, human TGF-β2 (Homo sapiens, UniProt P61812 303-414)
T1 sequence: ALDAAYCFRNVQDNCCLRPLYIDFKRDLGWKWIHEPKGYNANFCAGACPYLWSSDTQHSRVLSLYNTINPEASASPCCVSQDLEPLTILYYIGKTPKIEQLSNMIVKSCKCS

human TGF-β1 (active) = human TGF-β1 (active) (Homo sapiens, UniProt P01137 279-390)
human TGF-β3 = molecular target: T2, human TGF-β3 (Homo sapiens, UniProt P10600 301-412)
T2 sequence: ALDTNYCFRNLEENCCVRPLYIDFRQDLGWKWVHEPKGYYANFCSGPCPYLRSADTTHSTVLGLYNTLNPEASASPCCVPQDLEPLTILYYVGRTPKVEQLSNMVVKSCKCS

Chain of mouse TGF-β1 (active) (P04202 279-390): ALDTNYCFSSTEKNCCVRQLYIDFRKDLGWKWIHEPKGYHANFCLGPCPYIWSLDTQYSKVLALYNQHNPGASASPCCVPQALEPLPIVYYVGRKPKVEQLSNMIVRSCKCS
Chain of human TGF-β1 (active) (P01137 279-390): as the sequence (P04202 279-390) above, with S75A counted along it

B1: APT-β1 (structured_RNA)
RNA: GGCAUAAGGGAGGGGAGACUUGUGGAGGGCAAG
modifications: 2'-fluoro pyrimidines (SELEX with 2'-F-CTP and 2'-F-UTP); parent of APT-β1-OMe without 2'-OMe
Q: Does B1 bind (mouse TGF-β1 (active))?
A: Result: binds

Q: Does B1 bind (human TGF-β2)?
A: Result: no binding

Q: Does B1 bind (human TGF-β1 (active))?
A: Result: binds

Q: Does B1 bind (human TGF-β3)?
A: Result: no binding
